Source: article PMC3946754, “Two-Stage pH Control Strategy Based on the pH Preference of Acetoin Reductase Regulates Acetoin and 2,3-Butanediol Distribution in Bacillus subtilis” (PLoS ONE, 2014)

What was measured:
[1] = substrate: CC(O)C(C)O; assay: purified protein; conditions: oxidation, co-substrate NAD+ (standard assay 1.2 mM NAD+, pH 8.5, 25°C preincubation), stereoisomer not told, printed kcat/Km does not fit kcat and Km
[2] = substrate: NC(=O)C1=CN([C@@H]2O[C@H](COP(=O)(O)OP(=O)(O)OC[C@H]3O[C@@H](n4cnc5c(N)ncnc54)[C@H](O)[C@@H]3O)[C@@H](O)[C@H]2O)C=CC1; assay: NADH oxidation assay, Lineweaver-Burk plot; format: biochemical, Bacillus subtilis; conditions: reduction, co-substrate acetoin (standard assay 10 mM, pH 6.5), printed kcat/Km does not fit kcat and Km, varied: cofactor
[3] = substrate: CC(=O)C(C)O; assay: NADH oxidation assay, Lineweaver-Burk plot; format: biochemical, Bacillus subtilis; conditions: reduction, co-substrate NADH (standard assay 0.2 mM NADH, PBS pH 6.5, 25°C preincubation), stereoisomer not told, 25.0 °C
[4] = substrate: NC(=O)c1ccc[n+]([C@@H]2O[C@H](COP(=O)(O)OP(=O)(O)OC[C@H]3O[C@@H](n4cnc5c(N)ncnc54)[C@H](O)[C@@H]3O)[C@@H](O)[C@H]2O)c1; assay: NAD+ reduction assay, Lineweaver-Burk plot; format: biochemical, Bacillus subtilis; conditions: oxidation, co-substrate 2,3-butanediol (standard assay 10 mM, pH 8.5), printed kcat/Km does not fit kcat and Km, varied: cofactor

B1: AR/BDH (acetoin reductase/2,3-butanediol dehydrogenase) (Bacillus subtilis subsp. subtilis str. 168) (protein)
chain: MKAARWHNQKDIRIEHIEEPKTEPGKVKIKVKWCGICGSDLHEYLGGPIFIPVDKPHPLTNETAPVTMGHEFSGEVVEVGEGVENYKVGDRVVVEPIFATHGHQGAYNLDEQMGFLGLAGGGGGFSEYVSVDEELLFKLPDELSYEQGALVEPSAVALYAVRSSKLKAGDKAAVFGCGPIGLLVIEALKAAGATDIYAVELSPERQQKAEELGAIIVDPSKTDDVVAEIAERTGGGVDVAFEVTGVPVVLRQAIQSTTIAGETVIVSIWEKGAEIHPNDIVIKERTVKGIIGYRDIFPAVLSLMKEGYFSADKLVTKKIVLDDLIEEGFGALIKEKSQVKILVRPN
notes: full length, C-terminal His6 tag (from primer, not reported cut); pMA5-bdhA expressed in B. subtilis JNA 3-10; Ni-NTA and Superdex 200; subunit 38-39 kDa by SDS-PAGE
Question: Which results are given for B1?
Answer: Km [1]: 260 ± 9 µM; Vmax [1]: 2.34 µM/min; kcat [1]: 0.00233 s⁻¹; Km [2]: 40 ± 1 µM; Vmax [2]: 14.2 µM/min; kcat [2]: 0.0235 ± 0.00035 s⁻¹; Km [3]: 160 ± 5 µM; Vmax [3]: 5.54 µM/min; kcat [3]: 0.00567 ± 0.0002 s⁻¹; kcat/Km [3]: 35.5 M⁻¹ s⁻¹; Km [4]: 80 ± 2 µM; Vmax [4]: 14 µM/min; kcat [4]: 0.0232 ± 0.000267 s⁻¹
